The values that follow are results of earlier work, collected in paper PMC6417862.

This data set has as its target muscle actin (Oryctolagus cuniculus) (UniProt P68135).

In general, Kd refers to the equilibrium constant for the complex coming apart. Consider cofilin (from UniProt Q03048), for which the Kd was below 0.3 µM.
